# In paper PMC5935755:
# Target: ClpXP (ClpX ΔN-ter hexamer with ClpP tetradecamer) (UniProt P0A6H1)
row,Substance,"KM of ClpXP-mediated proteolysis (Michaelis-Menten analysis, loss of GFP fluorescence; 0.3 µM ClpX6, 0.9 µM ClpP14, 30 °C) [µM]"
1,"GFP-BAP1 (UCH domain, residues 1-238, ssrA-tagged) (from UniProt Q92560 1-238)",0.64
2,GFP-UCHL1 (ssrA-tagged),3.67
3,GFP-UCHL3 (ssrA-tagged),2.59

# Other lines, results leading:
row,"KM of ClpXP-mediated proteolysis (Michaelis-Menten analysis, loss of GFP fluorescence; 0.3 µM ClpX6, 0.9 µM ClpP14, 30 °C) [µM]",Substance
1,4.47,GFP-UCHL1_(I93M) (ssrA-tagged)
2,1.85,"GFP-UCHL5 (UCH domain, residues 1-240, ssrA-tagged) (from UniProt Q9Y5K5 1-240)"
